B1: recombinant ectodomain of human IFN-λ receptor 1 (hIFN-λR1) (receptor)
chain: RPRLAPPQNVTLLSQNFSVYLTWLPGLGNPQDVTYFVAYQSSPTRRRWREVEECAGTKELLCSMMCLKKQDLYNKFKGRVRTVSPSSKSPWVESEYLDYLFEVEPAPPVLVLTQTEEILSANATYQLPPCMPPLDLKYEVAFWKEGAGNKTLFPVTPHGQPVQITLQPAASEHHCLSARTIYTFSVPKYSKFSKPTCFLLEVPEANWA
B2: wild-type human interferon-λ3 (hIFN-λ3-WT), His-tagged (ligand)
chain: VPVARLRGALPDARGCHIAQFKSLSPQELQAFKRAKDALEESLLLKDCKCRSRLFPRTWDLRQLQVRERPVALEAELALTLKVLEATADTDPALGDVLDQPLHTLHHILSQLRACIQPQPTAGPRTRGRLHHWLHRLQEAPKKESPGCLEASVTFNLFRLLTRDLNCVASGDLCV

Assays:
Assay in all cases: SPR
[1] = molecular target: designed human interferon-λ3 variant hIFN-λ3-DE1, His-tagged (human, UniProt Q8IZI9)
[2] = molecular target: B1
[3] = molecular target: B1

| Binder | Kd [1] | koff [1] | koff [2] | Kd [3] |
| --- | --- | --- | --- | --- |
| B1 | 6.61 nM | 0.0244 s⁻¹ |  |  |
| B2 |  |  | 0.0183 s⁻¹ | 7.67 nM |

Source: PMC12866752 (2025)
